Assay results reported in the supplement of paper PMC10567573.

B1: FCHSD1 (parent)
chain: LEAAEVILEHAHRGEQTTSQVSWE
B2: PBXIP1 (parent)
chain: LQQLRARLQGLEADCVRGPDGVCL

Variants of: B1
Assay: protein stability index of a GFP-peptide fusion (GPS, HEK-293T) (PSI 1-6); higher = more stable
Conditions: c terminus: a fixed tail appended
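Further: lentivirally expressed fusions sorted by FACS into six bins by GFP to DsRed ratio, PSI derived from sequencing read proportions per bin multiplied by bin number.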

Protein stability index, by site and new letter:
E5: Y 2.01; D 4.31; T 4.38; Q 4.2; K 3.48; A 2.84; M 2.4; I 2.18; V 2.83; S 4.1; N 3.63; H 3.6; F 2.29; L 1.11; W 1.53; C 2.82; R 4.22
V6: K 4.16; Y 4.17; N 5.66; H 4.7; I 4.03; L 3.95; P 5.66; Q 5.27; F 3.56; A 4.9; G 5.35; S 4.24; D 5.52; R 4.48; E 5.31; M 3.85
E2: F 2.21; H 4.72; D 4.31; I 2.5; P 4.32; S 3.7; M 3.79; C 1.85; N 4.42; K 3.93; A 3.94; T 3.6; Q 4.41; R 3.84
I7: N 5.08; L 4.99; A 4.71; H 5.15; D 5.62; M 4.84; E 4.64; F 4.27; G 5.1; C 4.28
L1: H 4.88; I 4.12; W 3.35; V 4.7; T 5.34; K 4.67; C 4.8; M 4.58; R 4.52; S 4; E 4.55; F 3.33; D 4.42; Q 4.92; Y 5; N 4.61; P 5.11
A4: Y 2.48; D 3.59; P 5.19; V 3.15; E 5.11; R 3.59; N 4.52; G 5.06; L 2.59; K 4.24; H 4.46; C 4.59; I 2.56; F 2.35; T 3.82; M 2.35
A3: K 4.57; V 2.89; G 4.53; C 4.92; S 5.35; H 3.86; R 4.41; D 5.14; L 3.71; I 2.88; N 4.43; E 4.74; Q 4.79; T 4.49; M 3.65; Y 3.6

Variants of: B2
Assay: as above
Conditions: c terminus: a fixed tail appended

Protein stability index, by site and new letter:
L8: V 1.99; Q 3.36; I 2.84; P 3.56; W 2.24; M 2.05; D 3.58
L24: D 3.08; Q 3.1; I 1.94; N 3.04; R 2.65; Y 2.34; P 2.79; H 2.97
G18: F 1.47; I 1.87; M 2.32; Q 2.9; K 2.27; Y 1.93; P 1.78; V 3.65; A 2.97; W 2.54
R7: L 3.52; G 3.55; W 2.28; N 2.93; H 2.91; F 2.09; S 2.72; V 2.03; I 2.57; P 2.59; K 2.28; A 2.12
G10: W 2.15; E 2.64; I 1.65; A 1.24; Q 2.53; M 2.02
C23: A 2.2; N 1.65; P 2.52; W 3.01; K 2.03; E 2.98; V 1.74; H 2.66; I 2.78; Q 2.39; S 1.96
G21: I 1.75; W 2.07; S 3.94; K 3.18; Y 1.28; Q 3.34; R 2.56; A 1.28
P19: S 1; T 2.12; F 1.92; H 2.62; Y 2.13; N 1; R 1.41; W 1.5; I 2.58
R17: I 1.82; Q 3.04; F 2.12; C 2.04; K 1.86; N 3.03; G 2.55; L 1.98; H 2.93; P 3.52; V 2.2; M 1.79
A13: V 2.35; N 2.56; L 1.45; H 1.68; W 1.01; E 2.97; G 1.87; I 1.34; M 2.79; Y 2.01; Q 3.12; K 2.52; C 2.08; S 2.29
V22: F 1.34; G 1.78; T 2.57; I 1.96; A 2.03; C 1.84; Q 2.83; K 2.39; R 3.41
Q9: S 1.37; K 1.87; E 1.6; T 1.04; W 1.86; G 2.28; R 1.17; A 1.43; D 2.86
Q2: W 1.28; G 2.38; K 1.38; Y 1.24; E 2.63; P 3.05; N 3.27; C 3.55
R5: G 2.78; M 1.84; I 2.42; P 2.98; C 1.24; S 2.76; K 2.2; D 4.08; L 1.17; Y 2.34
L1: Q 3.83; V 2.52; H 3.85; R 3.76; E 5.29; C 2.92; S 4.1; I 1.72; N 2.96; A 3.3; F 1.12; Y 2.22
L11: A 2.46; S 3.09; H 2.41; D 4.28; Q 3.97; N 3.09; Y 2.75; T 3.01; M 2.75; R 2.88; E 3.75; F 2.25; G 4.24; W 2.78
C15: H 1.81; Y 2.13; G 1.96; L 2.5; S 2.16; T 2.18; W 2
A6: G 2.84; M 1.36; V 2.4; Q 1.54; F 1.95; Y 2.03; W 3.19; T 3.11; D 2; N 2.19; I 1.43
E12: D 2.23; T 2.02; H 1.35; V 2.79; P 1.8
Q3: M 3.04; T 1.2; R 3.08; L 1.93; K 1.97; Y 1.4; N 2.36; E 2.58; G 2.66; P 3.53; A 1.98
L4: Q 3.48; H 3.26; C 1.96; R 3.19; I 1.49; E 3.75; F 2.97; T 3.18; W 2.65
D20: Y 1.26; Q 3.03; T 2.12; M 1.53; K 2.08; A 2.03; V 1.8; E 1.89; G 2.45; H 1.6; R 2.54
D14: E 2.24; P 2.1; G 1.15; M 3.39; Y 1.14; W 1.32; I 2.73
V16: Y 2.57; H 1.74; I 2.38; Q 2.95; M 1.81; W 1.46; P 1.64; D 2.87
